22 molecules from patent US20210079083A1 (INSTITUTE FOR BASIC SCIENCE, published 2021) can be followed below.

Positions count from the first letter of the chain named.

The chains are these.
T1: Human Angiopoietin-2 full-length (hAng2) (human, UniProt O15123 19-496)
T1 construct: The cell assays used full-length hAng2 from R&D Systems; also called human Ang2; A2
T1 sequence: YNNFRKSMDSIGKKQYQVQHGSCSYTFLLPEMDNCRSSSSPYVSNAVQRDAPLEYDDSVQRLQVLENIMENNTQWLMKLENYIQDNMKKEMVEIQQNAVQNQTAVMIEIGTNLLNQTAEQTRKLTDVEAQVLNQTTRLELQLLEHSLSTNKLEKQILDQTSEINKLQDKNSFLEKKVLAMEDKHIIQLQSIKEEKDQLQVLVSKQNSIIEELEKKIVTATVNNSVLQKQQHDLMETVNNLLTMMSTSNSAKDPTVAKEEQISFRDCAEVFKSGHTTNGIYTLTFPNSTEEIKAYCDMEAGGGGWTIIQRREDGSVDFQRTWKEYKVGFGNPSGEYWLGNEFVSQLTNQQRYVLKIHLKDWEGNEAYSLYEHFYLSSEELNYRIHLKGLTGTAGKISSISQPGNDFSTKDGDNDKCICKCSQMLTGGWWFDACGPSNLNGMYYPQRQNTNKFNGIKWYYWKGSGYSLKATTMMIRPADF

B1: mouse anti-Ang2 antibody 2C8 (antibody, V domains shown)
VH: QVQLQQSGPQLVRPGASVKISCKASGYSFTSYWMHWVKQRPGQGLEWIGMIDPSDSETRLNQKFKDKASLTVDKSSSTAYMQLSSPTSGDSAVYYCARRFYYGSDWYFDVWGAGSTVTVSS
VL: DIVMTQSHKFMSTSVGDRVSITCKASQDVGTAVAWYQQKPGQSPKLLIYWASTRHTGVPDRFTGSGSGTDFTLTISNVQSEDLADYFCQQYSSYPLTFGSGTKLEIK
B2: mouse anti-Ang2 antibody 4E2 (antibody, V domains shown)
VH: EVQLQQSGPELEKPGASVKISCKASGYSFTGYNMNWVKQSNGKSLEWIGNIDPYYGGTSYNQKFKGKATLTVDKSSSTAYMQLKSLTSEDSAVYYCVRYGNYVDYWGQGTTLTVSS
VL: DIVMTQSHKFMSTSVGDRVSITCKASQDVSTAVAWYQQKPGQSPKLLIYWASTRHTGVPDRFTGSGSGTDYTLTISSVQAEDLALYYCQQHYNTPPTFGSGTKLEIK
notes: Mouse monoclonal antibody from a hybridoma, purified on Protein G
B3: mouse anti-Ang2 antibody 2F10 (antibody, V domains shown)
VH: QVQLVESGGGLVKPGGSLKLSCAASGFTFSDYYMYWIRQTPEKRLEWVATINDGGSYTYYPDSVKGRFTISRDNAKNNLYLQMSSLKSEDTAMYYCARDWGLRPWFVYWGQGTLVTVSA
VL: B2 VL with N93T
notes: as for B2
B4: mouse anti-Ang2 antibody 4B9 (antibody, V domains shown)
VH: B3 VH with Q1E, I37V, N52S, D53V, Y57F
VL: B2 VL with N93S
notes: Mouse monoclonal antibody from a hybridoma (KCLRF-BP-00418), purified on Protein G
B5: humanized anti-Ang2 antibody 2C8H32 (antibody, V domains shown)
VH: QVQLVQSGAEVKKPGASVKVSCKASGYSFTSYWMHWVRQAPGQGLEWIGMIDPSDSETRLNQKFKDKASMTRDTSTSTVYMELSSLRSEDTAVYYCARRFYYGSDWYFDVWGQGTLVTVSS
VL: DIQLTQSPSFLSASVGDRVSITCKASQDVGTAVAWYQQKPGKAPKLLIYWASTRHTGVPDRFSGSGSGTEFTLTISSLQPEDFATYYCQQYSSYPLTFGQGTKVEIK
notes: Full-length human IgG1
B6: 4B9H11G4 (human IgG4 class antibody of 4B9H11) (antibody, V domains shown)
VH: QVQLVESGGGLVKPGGSLRLSCAASGFTFSDYYMYWIRQAPGKGLEWVSTISVGGSFTYYPDSVKGRFTISRDNAKNSLYLQMNSLRAEDTAVYYCARDWGLRPWFVYWGQGTLVTVSS
VL: B5 VL with L4M, F10S, S20T, G30S, D60S, E70D, Y91H, S92Y, Y94T, L96P
notes: The heavy chain constant region was replaced by an IgG4 class constant region; The sentence prints '4B9 heavy chain gene' where 4B9H11 is meant; also called 4B9H11-IgG4
B7: humanized anti-Ang2 antibody 2C8H23 (antibody, V domains shown)
VH: B5 VH with K67R, A68V, S69T
VL: B5 VL with T85D, Y87F
notes: Full-length human IgG1
B8: humanized anti-Ang2 antibody 2C8H22 (antibody, V domains shown)
VH: B5 VH with K67R, A68V, S69T
VL: B5 VL
notes: Full-length human IgG1
B9: humanized anti-Ang2 antibody 2C8H53 (antibody, V domains shown)
VH: B5 VH with R38K, M70L, R72V
VL: B5 VL with T85D, Y87F
notes: Full-length human IgG1
B10: humanized anti-Ang2 antibody 4B9H21 (antibody, V domains shown)
VH: B6 VH with I37V
VL: B5 VL with L4M, F10S, S20T, G30S, D60S, E70D, Y91H, S92Y, Y94T, L96P
notes: Full-length human IgG1
B11: humanized anti-Ang2 antibody 2C8H52 (antibody, V domains shown)
VH: B5 VH with R38K, M70L, R72V
VL: B5 VL
notes: Full-length human IgG1
B12: humanized anti-Ang2 antibody 2C8H21 (antibody, V domains shown)
VH: B5 VH with K67R, A68V, S69T
VL: B5 VL with S20T, D60S
notes: Full-length human IgG1
B13: humanized anti-Ang2 antibody 2C8H51 (antibody, V domains shown)
VH: B5 VH with R38K, M70L, R72V
VL: B5 VL with S20T, D60S
notes: Full-length human IgG1
B14: humanized anti-Ang2 antibody 2C8H43 (antibody, V domains shown)
VH: B5 VH with R38K
VL: B5 VL with T85D, Y87F
notes: Full-length human IgG1
B15: humanized anti-Ang2 antibody 2C8H41 (antibody, V domains shown)
VH: B5 VH with R38K
VL: B5 VL with S20T, D60S
notes: Full-length human IgG1
B16: humanized anti-Ang2 antibody 2C8H13 (antibody, V domains shown)
VH: B5 VH with S28T, I48M, K67R, A68V, S69T
VL: B5 VL with T85D, Y87F
notes: Full-length human IgG1
B17: humanized anti-Ang2 antibody 4B9H31 (antibody, V domains shown)
VH: B6 VH with I37V, S49A
VL: B5 VL with L4M, F10S, S20T, G30S, D60S, E70D, Y91H, S92Y, Y94T, L96P
notes: Full-length human IgG1
B18: humanized anti-Ang2 antibody 2C8H33 (antibody, V domains shown)
VH: B5 VH
VL: B5 VL with T85D, Y87F
notes: Full-length human IgG1
B19: humanized anti-Ang2 antibody 2C8H12 (antibody, V domains shown)
VH: B5 VH with S28T, I48M, K67R, A68V, S69T
VL: B5 VL
notes: Full-length human IgG1
B20: humanized anti-Ang2 antibody 2C8H31 (antibody, V domains shown)
VH: B5 VH
VL: B5 VL with S20T, D60S
notes: Full-length human IgG1
B21: humanized anti-Ang2 antibody 2C8H42 (antibody, V domains shown)
VH: B5 VH with R38K
VL: B5 VL
notes: Full-length human IgG1
B22: 2C8H11G4 (human IgG4 class antibody of 2C8H11) (antibody, V domains shown)
VH: B5 VH with S28T, I48M, K67R, A68V, S69T
VL: B5 VL with S20T, D60S
notes: The heavy chain constant region (CH1-hinge-CH2-CH3) was replaced by an IgG4 class constant region; also called 2C8H11-IgG4

One test concerns the target T1, Human Angiopoietin-2 full-length (hAng2). Kind of test: BLI (Octet), hAng2 fixed on AR2G sensor, antibody 3.125-50 nM in solution, 1:1 global fit. Here is the method: (§1) The affinity of mouse monoclonal antibody against hAng2 was measured using Octet system (ForteBio). Specifically, buffer and samples were measured in total 200 μl/well using Black 96-well plates (96 well F-type black plates, Greiner). […] After the hydration, hAng2 was diluted in 10 mM sodium acetate, pH 6.0 buffer at a concentration of 10 μg/ml, fixed on AR2G biosensor, and blocked with 1M ethanolamine. The mouse monoclonal anti-Ang2 antibodies were diluted to 50, 25, 12.5, 6.25, 3.125, and 0 nM with 1× kinetic buffer, and subjected to association for 300 seconds and dissociation for 900 seconds.
On the technique in general: Biolayer interferometry detects binding as a change in optical thickness at a sensor tip.
One may read the Kd as the constant that tells how readily two partners part at equilibrium. Read a high Kd as a looser complex. A word on the koff: it is the first-order rate constant of dissociation. A higher koff goes with a short-lived complex. As a reminder, the kon is the second-order rate constant of association. A high value points to faster complex formation. In turn, B1 yielded a Kd of 0.0455 nM, a koff of 3.54e-06 s⁻¹ and an on-rate (kon) of 77800 M⁻¹ s⁻¹.

Regarding B2, the Kd came out at 4.74 nM, the off-rate constant (koff) was 0.000134 s⁻¹ and the association rate constant (kon) is 28300 M⁻¹ s⁻¹.

For the molecule B3, binding was characterised by a dissociation constant (Kd) of 0.138 nM, the off-rate constant (koff) is 1.71e-05 s⁻¹ and the kon worked out at 124000 M⁻¹ s⁻¹.

Take B4: the dissociation constant Kd came to 0.00368 nM, the off-rate (koff) turned out to be 5.04e-07 s⁻¹ and the kon amounted to 137000 M⁻¹ s⁻¹.

For another test the target is unchanged. Nature of the test: BLI (Octet), antibody fixed on AR2G sensor, hAng2 3.125-50 nM in solution, 1:1 global fit. Here is the method: as §1, with “of humanized anti-Ang2” for “of mouse monoclonal”, “hydration, humanized anti-Ang2 antibody” for “hydration, hAng2”, “The recombinant hAng2 was” for “The mouse monoclonal anti-Ang2 antibodies were”, “300 sec” for “300 seconds”, “900 sec.” for “900 seconds.”
The affinities of humanized 2C8 antibodies to hAng2 were in Table 15.
In turn, B5 had a Kd of 0.197 nM, a koff of 1.49e-05 s⁻¹ and a kon of 75700 M⁻¹ s⁻¹.

The molecule B6 gave an equilibrium dissociation constant (Kd) of 0.08 nM, a koff of 3.46e-05 s⁻¹ and a kon of 432000 M⁻¹ s⁻¹.

Consider B7, for which binding was characterised by a dissociation constant (Kd) of 0.287 nM, the koff is 2.28e-05 s⁻¹ and the kon stood at 79500 M⁻¹ s⁻¹.

Molecule B8 returned a dissociation constant (Kd) of 0.115 nM, a koff of 6.84e-06 s⁻¹ and an on-rate (kon) of 59600 M⁻¹ s⁻¹.

The molecule B9 had a Kd of 0.384 nM, a koff of 3.11e-05 s⁻¹ and an on-rate (kon) of 80900 M⁻¹ s⁻¹.

The molecule B10 had a Kd of 0.121 nM, a koff of 8.94e-06 s⁻¹ and a kon of 73700 M⁻¹ s⁻¹.

Take B11: the Kd is 0.243 nM, the koff came to 1.99e-05 s⁻¹ and the kon is 81900 M⁻¹ s⁻¹.

B12 had an equilibrium dissociation constant (Kd) of 0.135 nM, a koff of 1.5e-05 s⁻¹ and an on-rate constant (kon) of 111000 M⁻¹ s⁻¹.

Take B13: the Kd came out at 0.137 nM, the dissociation rate constant (koff) was 9.61e-06 s⁻¹ and the kon is 70200 M⁻¹ s⁻¹.

In the case of B14, the Kd is 0.373 nM, the koff was 2.65e-05 s⁻¹ and the kon turned out to be 71100 M⁻¹ s⁻¹.

Regarding B15, the Kd is 0.249 nM, the koff was 1.67e-05 s⁻¹ and the kon turned out to be 67000 M⁻¹ s⁻¹.

As to B16, the Kd was determined as 0.246 nM, the off-rate (koff) stood at 2.77e-05 s⁻¹ and the kon was determined as 113000 M⁻¹ s⁻¹.

B17 yielded a Kd of 0.167 nM, a koff of 1.56e-05 s⁻¹ and a kon of 93900 M⁻¹ s⁻¹.

On to B18, for which binding was characterised by a dissociation constant (Kd) of 0.0445 nM, the koff is 3.99e-06 s⁻¹ and the kon stood at 89600 M⁻¹ s⁻¹.

B19 yielded a dissociation constant (Kd) of 0.139 nM, a koff of 1.33e-05 s⁻¹ and a kon of 95200 M⁻¹ s⁻¹.

B20 came in with a Kd of 0.266 nM, a koff of 2.21e-05 s⁻¹ and a kon of 83200 M⁻¹ s⁻¹.

The molecule B21 came in with a Kd of 0.381 nM, a koff of 3.07e-05 s⁻¹ and an association rate constant (kon) of 80600 M⁻¹ s⁻¹.

Turning to B22, the Kd was found to be 0.0105 nM, the koff amounted to 4.35e-06 s⁻¹ and the on-rate constant (kon) worked out at 415000 M⁻¹ s⁻¹.
